*1 amine or outer side, *2 acyl side, *3 side chain or, on linkers, in order; H or OH if unused. Where no end group is shown, it is not given here. Side-chain parts run from the residue outwards. [ ]: non-standard residue; d: D form. The star is where a group is joined. C20 diacid = O=C(O)CCCCCCCCCCCCCCCCCCC(=O)*; C16 diacid = O=C(O)CCCCCCCCCCCCCCC(=O)*; γGlu = O=C(O)[C@H](CCC(=O)[*:2])N[*:1]; NMeI = CC[C@H](C)[C@H](NC)C(=O)O; Pentanoyl = CCCCC(=O)*; AEEA = NCCOCCOCC(=O)O; Aib = CC(C)(N)C(=O)O
molecular target: human corticotropin-releasing factor 2a (CRF2a receptor) (human), Q13324; test: cell-based or functional assay
Sequence (Q13324 20-411): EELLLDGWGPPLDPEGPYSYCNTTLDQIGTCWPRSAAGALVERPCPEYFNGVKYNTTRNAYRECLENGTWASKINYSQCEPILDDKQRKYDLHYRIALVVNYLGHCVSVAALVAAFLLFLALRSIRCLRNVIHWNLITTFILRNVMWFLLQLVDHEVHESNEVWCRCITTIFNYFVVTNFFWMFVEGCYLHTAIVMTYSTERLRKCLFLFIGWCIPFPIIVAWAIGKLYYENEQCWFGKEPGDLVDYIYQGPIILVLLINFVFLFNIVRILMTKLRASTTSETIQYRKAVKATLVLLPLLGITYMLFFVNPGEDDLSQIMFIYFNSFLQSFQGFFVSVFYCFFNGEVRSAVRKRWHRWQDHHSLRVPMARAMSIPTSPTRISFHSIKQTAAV

Row | Binder | EC50 [nM] (cAMP)
1 | Ac-IVLSLD[dV]PIKLK([AEEA-γGlu-C20 diacid])KILLEQEKQKAQREQAETN[Aib]QILAQV-NH2 (SMILES CC[C@H](C)[C@H](NC(C)=O)C(=O)N[C@H](C(=O)N[C@@H](CC(C)C)C(=O)N[C@@H](CO)C(=O)N[C@@H](CC(C)C)C(=O)N[C@@H](CC(=O)O)C(=O)N[C@@H](C(=O)N1CCC[C@H]1C(=O)N[C@H](C(=O)N[C@@H](CCCCN)C(=O)N[C@@H](CC(C)C)C(=O)N[C@@H](CCCCNC(=O)COCCOCCNC(=O)CC[C@H](NC(=O)CCCCCCCCCCCCCCCCCCC(=O)O)C(=O)O)C(=O)N[C@@H](CCCCN)C(=O)N[C@H](C(=O)N[C@@H](CC(C)C)C(=O)N[C@@H](CC(C)C)C(=O)N[C@@H](CCC(=O)O)C(=O)N[C@@H](CCC(N)=O)C(=O)N[C@@H](CCC(=O)O)C(=O)N[C@@H](CCCCN)C(=O)N[C@@H](CCC(N)=O)C(=O)N[C@@H](CCCCN)C(=O)N[C@@H](C)C(=O)N[C@@H](CCC(N)=O)C(=O)N[C@@H](CCCNC(=N)N)C(=O)N[C@@H](CCC(=O)O)C(=O)N[C@@H](CCC(N)=O)C(=O)N[C@@H](C)C(=O)N[C@@H](CCC(=O)O)C(=O)N[C@H](C(=O)N[C@@H](CC(N)=O)C(=O)NC(C)(C)C(=O)N[C@@H](CCC(N)=O)C(=O)N[C@H](C(=O)N[C@@H](CC(C)C)C(=O)N[C@@H](C)C(=O)N[C@@H](CCC(N)=O)C(=O)N[C@H](C(N)=O)C(C)C)[C@@H](C)CC)[C@@H](C)O)[C@@H](C)CC)[C@@H](C)CC)C(C)C)C(C)C) [SEQ ID NO 232] | 0.12 nM
2 | Ac-IVLSLD[dV]PIKLK([AEEA-γGlu-C20 diacid])KILLEQEKQKKQREQAETN[Aib]QILAQV-NH2 (SMILES CC[C@H](C)[C@H](NC(C)=O)C(=O)N[C@H](C(=O)N[C@@H](CC(C)C)C(=O)N[C@@H](CO)C(=O)N[C@@H](CC(C)C)C(=O)N[C@@H](CC(=O)O)C(=O)N[C@@H](C(=O)N1CCC[C@H]1C(=O)N[C@H](C(=O)N[C@@H](CCCCN)C(=O)N[C@@H](CC(C)C)C(=O)N[C@@H](CCCCNC(=O)COCCOCCNC(=O)CC[C@H](NC(=O)CCCCCCCCCCCCCCCCCCC(=O)O)C(=O)O)C(=O)N[C@@H](CCCCN)C(=O)N[C@H](C(=O)N[C@@H](CC(C)C)C(=O)N[C@@H](CC(C)C)C(=O)N[C@@H](CCC(=O)O)C(=O)N[C@@H](CCC(N)=O)C(=O)N[C@@H](CCC(=O)O)C(=O)N[C@@H](CCCCN)C(=O)N[C@@H](CCC(N)=O)C(=O)N[C@@H](CCCCN)C(=O)N[C@@H](CCCCN)C(=O)N[C@@H](CCC(N)=O)C(=O)N[C@@H](CCCNC(=N)N)C(=O)N[C@@H](CCC(=O)O)C(=O)N[C@@H](CCC(N)=O)C(=O)N[C@@H](C)C(=O)N[C@@H](CCC(=O)O)C(=O)N[C@H](C(=O)N[C@@H](CC(N)=O)C(=O)NC(C)(C)C(=O)N[C@@H](CCC(N)=O)C(=O)N[C@H](C(=O)N[C@@H](CC(C)C)C(=O)N[C@@H](C)C(=O)N[C@@H](CCC(N)=O)C(=O)N[C@H](C(N)=O)C(C)C)[C@@H](C)CC)[C@@H](C)O)[C@@H](C)CC)[C@@H](C)CC)C(C)C)C(C)C) [SEQ ID NO 230] | 0.16 nM
3 | [NMeI]VLSLD[dV]PIGLK([γGlu-C20 diacid])KILLEQEKQKKQREQAETN[Aib]QILAQV-NH2 (N-terminus assumed; SMILES CC[C@H](C)[C@H](NC)C(=O)N[C@H](C(=O)N[C@@H](CC(C)C)C(=O)N[C@@H](CO)C(=O)N[C@@H](CC(C)C)C(=O)N[C@@H](CC(=O)O)C(=O)N[C@@H](C(=O)N1CCC[C@H]1C(=O)N[C@H](C(=O)NCC(=O)N[C@@H](CC(C)C)C(=O)N[C@@H](CCCCNC(=O)CC[C@H](NC(=O)CCCCCCCCCCCCCCCCCCC(=O)O)C(=O)O)C(=O)N[C@@H](CCCCN)C(=O)N[C@H](C(=O)N[C@@H](CC(C)C)C(=O)N[C@@H](CC(C)C)C(=O)N[C@@H](CCC(=O)O)C(=O)N[C@@H](CCC(N)=O)C(=O)N[C@@H](CCC(=O)O)C(=O)N[C@@H](CCCCN)C(=O)N[C@@H](CCC(N)=O)C(=O)N[C@@H](CCCCN)C(=O)N[C@@H](CCCCN)C(=O)N[C@@H](CCC(N)=O)C(=O)N[C@@H](CCCNC(=N)N)C(=O)N[C@@H](CCC(=O)O)C(=O)N[C@@H](CCC(N)=O)C(=O)N[C@@H](C)C(=O)N[C@@H](CCC(=O)O)C(=O)N[C@H](C(=O)N[C@@H](CC(N)=O)C(=O)NC(C)(C)C(=O)N[C@@H](CCC(N)=O)C(=O)N[C@H](C(=O)N[C@@H](CC(C)C)C(=O)N[C@@H](C)C(=O)N[C@@H](CCC(N)=O)C(=O)N[C@H](C(N)=O)C(C)C)[C@@H](C)CC)[C@@H](C)O)[C@@H](C)CC)[C@@H](C)CC)C(C)C)C(C)C) [SEQ ID NO 229] | 0.11 nM
4 | Ac-IVLSLD[dV]PIKLK([AEEA-γGlu-C20 diacid])KILLEQEKQKEQREQAETN[Aib]QILAQV-NH2 (SMILES CC[C@H](C)[C@H](NC(C)=O)C(=O)N[C@H](C(=O)N[C@@H](CC(C)C)C(=O)N[C@@H](CO)C(=O)N[C@@H](CC(C)C)C(=O)N[C@@H](CC(=O)O)C(=O)N[C@@H](C(=O)N1CCC[C@H]1C(=O)N[C@H](C(=O)N[C@@H](CCCCN)C(=O)N[C@@H](CC(C)C)C(=O)N[C@@H](CCCCNC(=O)COCCOCCNC(=O)CC[C@H](NC(=O)CCCCCCCCCCCCCCCCCCC(=O)O)C(=O)O)C(=O)N[C@@H](CCCCN)C(=O)N[C@H](C(=O)N[C@@H](CC(C)C)C(=O)N[C@@H](CC(C)C)C(=O)N[C@@H](CCC(=O)O)C(=O)N[C@@H](CCC(N)=O)C(=O)N[C@@H](CCC(=O)O)C(=O)N[C@@H](CCCCN)C(=O)N[C@@H](CCC(N)=O)C(=O)N[C@@H](CCCCN)C(=O)N[C@@H](CCC(=O)O)C(=O)N[C@@H](CCC(N)=O)C(=O)N[C@@H](CCCNC(=N)N)C(=O)N[C@@H](CCC(=O)O)C(=O)N[C@@H](CCC(N)=O)C(=O)N[C@@H](C)C(=O)N[C@@H](CCC(=O)O)C(=O)N[C@H](C(=O)N[C@@H](CC(N)=O)C(=O)NC(C)(C)C(=O)N[C@@H](CCC(N)=O)C(=O)N[C@H](C(=O)N[C@@H](CC(C)C)C(=O)N[C@@H](C)C(=O)N[C@@H](CCC(N)=O)C(=O)N[C@H](C(N)=O)C(C)C)[C@@H](C)CC)[C@@H](C)O)[C@@H](C)CC)[C@@H](C)CC)C(C)C)C(C)C) [SEQ ID NO 231] | 0.28 nM
5 | Pentanoyl-VLSLD[dV]PIGLK([γGlu-C20 diacid])KILLEQEKQKKQREQAETN[Aib]QILAQV-NH2 (SMILES CCCCC(=O)N[C@H](C(=O)N[C@@H](CC(C)C)C(=O)N[C@@H](CO)C(=O)N[C@@H](CC(C)C)C(=O)N[C@@H](CC(=O)O)C(=O)N[C@@H](C(=O)N1CCC[C@H]1C(=O)N[C@H](C(=O)NCC(=O)N[C@@H](CC(C)C)C(=O)N[C@@H](CCCCNC(=O)CC[C@H](NC(=O)CCCCCCCCCCCCCCCCCCC(=O)O)C(=O)O)C(=O)N[C@@H](CCCCN)C(=O)N[C@H](C(=O)N[C@@H](CC(C)C)C(=O)N[C@@H](CC(C)C)C(=O)N[C@@H](CCC(=O)O)C(=O)N[C@@H](CCC(N)=O)C(=O)N[C@@H](CCC(=O)O)C(=O)N[C@@H](CCCCN)C(=O)N[C@@H](CCC(N)=O)C(=O)N[C@@H](CCCCN)C(=O)N[C@@H](CCCCN)C(=O)N[C@@H](CCC(N)=O)C(=O)N[C@@H](CCCNC(=N)N)C(=O)N[C@@H](CCC(=O)O)C(=O)N[C@@H](CCC(N)=O)C(=O)N[C@@H](C)C(=O)N[C@@H](CCC(=O)O)C(=O)N[C@H](C(=O)N[C@@H](CC(N)=O)C(=O)NC(C)(C)C(=O)N[C@@H](CCC(N)=O)C(=O)N[C@H](C(=O)N[C@@H](CC(C)C)C(=O)N[C@@H](C)C(=O)N[C@@H](CCC(N)=O)C(=O)N[C@H](C(N)=O)C(C)C)[C@@H](C)CC)[C@@H](C)O)[C@@H](C)CC)[C@@H](C)CC)C(C)C)C(C)C) [SEQ ID NO 228] | 0.19 nM
6 | H-IVLSLD[dV]PIKLK([γGlu-C16 diacid])QILLKQERQKKQREQAEKNVQILEQV-NH2 (SMILES CC[C@H](C)[C@H](N)C(=O)N[C@H](C(=O)N[C@@H](CC(C)C)C(=O)N[C@@H](CO)C(=O)N[C@@H](CC(C)C)C(=O)N[C@@H](CC(=O)O)C(=O)N[C@@H](C(=O)N1CCC[C@H]1C(=O)N[C@H](C(=O)N[C@@H](CCCCN)C(=O)N[C@@H](CC(C)C)C(=O)N[C@@H](CCCCNC(=O)CC[C@H](NC(=O)CCCCCCCCCCCCCCC(=O)O)C(=O)O)C(=O)N[C@@H](CCC(N)=O)C(=O)N[C@H](C(=O)N[C@@H](CC(C)C)C(=O)N[C@@H](CC(C)C)C(=O)N[C@@H](CCCCN)C(=O)N[C@@H](CCC(N)=O)C(=O)N[C@@H](CCC(=O)O)C(=O)N[C@@H](CCCNC(=N)N)C(=O)N[C@@H](CCC(N)=O)C(=O)N[C@@H](CCCCN)C(=O)N[C@@H](CCCCN)C(=O)N[C@@H](CCC(N)=O)C(=O)N[C@@H](CCCNC(=N)N)C(=O)N[C@@H](CCC(=O)O)C(=O)N[C@@H](CCC(N)=O)C(=O)N[C@@H](C)C(=O)N[C@@H](CCC(=O)O)C(=O)N[C@@H](CCCCN)C(=O)N[C@@H](CC(N)=O)C(=O)N[C@H](C(=O)N[C@@H](CCC(N)=O)C(=O)N[C@H](C(=O)N[C@@H](CC(C)C)C(=O)N[C@@H](CCC(=O)O)C(=O)N[C@@H](CCC(N)=O)C(=O)N[C@H](C(N)=O)C(C)C)[C@@H](C)CC)C(C)C)[C@@H](C)CC)[C@@H](C)CC)C(C)C)C(C)C) [SEQ ID NO 13] | 0.15 nM

From patent publication US20260001928A1 (CORTERIA PHARMACEUTICALS, priority 2022, published 2026)
